Test results: patent CN112409479A (INST FOR VIRAL DISEASE CONTROL AND PREVENTION CHINESE …, dated 2021)

Target: T1, 新型冠状病毒S1蛋白 (纯化) (SARS-CoV-2, UniProt P0DTC2 14-685)
T1 construct: domain: S1
Assay: ELISA, purified IgG on coated S1 protein

B1: 人源抗新冠病毒中和性抗体nCoV-121 全抗体IgG (antibody)
light: NFMLTQPHSVSESPGKTVTISCTRSSGSIASNYVQWYQQRPGSSPTTVIYEDNQRPSGVPDRFSGSIDSSSNSASLTISGLKTEDEADYYCQSYDSSNQWVFGGGTKLTVLGQPKAAPSVTLGQPKAAPSVTLFPPSSEELQANKATLVCLISDFYPGAVTVAWKADSSPVKAGVETTTPSKQSNNKYAASSYLSLTPEQWKSHRSYSCQVTHEGSTVEKTVAPTECS
heavy: not shown
In the case of B1, the “dilution still ELISA-positive” value is reported as ≥ 64000 fold dilution from 0.2mg/ml.
